Experiment: yeast display, Sf9 membrane polyspecificity reagent, FACS + sequencing; frameworks hold sequencing errors
Procedure, shortened: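 Nanobodies came from a synthetic yeast display library in Saccharomyces cerevisiae BJ5465, induced with galactose for 36–48 hours and stained for 1 hour at 4 °C with 10% biotinylated, detergent-solubilized Sf9 membrane reagent. Cells were enriched on streptavidin microbeads and then FACS-sorted, with low and high (top ~1%) gates set on anti-HA fluorescence for expression and streptavidin fluorescence for reagent binding. Each polyreactivity label reflects the gate a clone came from. Genes were amplified by colony PCR, sequenced by MiSeq 2 × 250 and filtered by CDR length.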

Row | Sequence | polyreactivity (PSR sort gate)
1 | QVQLVESGGGLVQAGGSLRLSCAASGSTFRRNAMGWYRQAPGKERELVAAIDKSGGTTYYADSVKGRFTISRDNAKNTVYLQMNSLKPEDTAVYYCAVRSYLSSRGSHDYWGQGTQVTVSS | low polyreactivity
2 | QVQLVESGGGLVQAGGSLRLSCAASGSTFRRNAMGWYRQAPGKERELVAAISRSGGSTYYADSEKGRFTISRDNAKNTVYLQMNSLKPEDTVVYYCAADAARTSHWSGDYWGQGTQVTVSS | high polyreactivity
3 | QVQLVESGGGLVQAGGSLRLSCAASGSTFRRYAMGWYRPAPGKERELVAAISRSGGTTYYADSVKGRFTISRDNAKNTVYFQMNSLKPEDTAVYYCNARYPVVRYDYWGQGTQVTVSS | high polyreactivity
4 | QVQLVESGGGLVQAGGSLRLSCAASGSTFRRYAMGWYRQAPGKEREFVAAITWSGGNTYADSVKGRFTISRDNAKNTVYLQMNSLKPEDTAVYYCAVQLVYDHYRYDYWGQGTQVTVSS | high polyreactivity
5 | QVQLVESGGGLVQAGGSLRLSCAASGSTFRRYAMGWYRQAPGKERELVAAITWRGGSTYYADSVKGRFTISRDNAKNTVFLQMNSLKPEDTAVYYCATSDYYYDYWGQGTQVTVSS | high polyreactivity
6 | QVQLVESGGGLVQAGGSLRLSCAASGSTFRRYAMGWYRQAPGKERELVADISSGGSTYYADSVKGRFTISRDNAKNTVYLQMNSLKPEDTAVYYCNAKTFYYGSRFRRAEYDYWGQGTQVTLSS | low polyreactivity
7 | QVQLVESGGGLVQAGGSLRLSCAASGSTFRRYTMGWYRQAPGKERELVAAITWSGGSTYYADSVKGRFTISRDNAKNTVYLQMNSLKPEDTAVYYCAADRPYHTREYYYWGQGTQVNVSS | low polyreactivity
8 | QVQLVESGGGLVQAGGSLRLSCAASGSTFRSYAMGWYRQAPGKERELVAAITSSGGRTYYADSVKGRFTISRDNAKHTVYLQMNSLKPEDTAVYYCAARTYSWGDWGQGTQVTVSS | high polyreactivity
9 | QVQLVESGGGLVQAGGSLRLSCAASGSTFRTKAMGWYRHAPGKERELVAAITSGTRTYYADSVKGRFTLSRDNAKNTVYLQMNSLKPEDTAVYYCAAEYYGSSYSNYRTEYDYWGQGTQVTVSS | low polyreactivity
10 | QVQLVESGGGLVQAGGSLRLSCAASGSTFRTNAMGWYRQAPGKERELVAAISGNGGSTYYADSVKGRFTISRDNAKYNVYLQMNSLKAEDTAVYYCAARRGYRYYPPFGYWGQGTQVTVSS | high polyreactivity
11 | QVQLVESGGGLVQAGGSLRLSCAASGSTFRTNTRGWYRQAPGKERELVAAITKSGGSTYYADSVKGRFTISRDNAKNTVYLQMNSLKPEDTAVYYCAARVLYRSGLRGDYWGQGTQVTVSS | high polyreactivity
12 | QVQLVESGGGLVQAGGSLRLSCAASGSTFRTYAMGWYRQAPGKERELVAAIRSRGGSTYYADSVKGRFTISRDNAKNTVYLLMNSLKPEDTAVYYCNAVPRWSYVDEDSWGQGTQVTVSS | high polyreactivity
13 | QVQLVESGGGLVQAGGSLRLSCAASGSTFRTYAMGWYRQAPGKERELVAAISYNGGSTYYADSVTGRFTISRDNAKNTVYLQMNILKPEDTEVYYFAKDQTGYWYNRYGYWGQGTQVTVSS | low polyreactivity
14 | QVQLVESGGGLVQAGGSLRLSCAASGSTFRTYSMGWYRQAPGKEREWVASITSSGASTYYADSVKGRFTISRDNAKNTVYLQMNSLKPEDTAVYYCAKGYPWYYRYKYDSWGQGTQVTVSS | high polyreactivity
15 | QVQLVESGGGLVQAGGSLRLSCAASGSTFRVNAMGWYRQAPGKERELVAAISFSAGGTYYADSVKGRFTISRDNAKNTVYLQMNSLKPADTAVYYCNARYGGWVWSTYDHWGQGTQVTVSS | low polyreactivity
16 | QVQLVESGGGLVQAGGSLRLSCAASGSTFRVNAMGWYRQAPGKERELVAVITSGGSTYADSVKGRFTISRDNAKNTVYLQMNSLKPEDTAVYYCAAESRWSWVHWSAYTYDYWGQGTQVTVSS | low polyreactivity
17 | QVQLVESGGGLVQAGGSLRLSCAASGSTFRVYAMGWYRQAPGKERELVAAISWSGGRTYYADSVKGRFTISGDNAKNTVYLQMNSLKTEDTAVYYCAADTYGRYDYWGQGTQVTVSS | high polyreactivity
18 | QVQLVESGGGLVQAGGSLRLSCAASGSTFRWNAMGWYRQAPGKERELVAAISNGGSTNYADSVKGRFTISRDNAKNSVYFQMNSLKPEDTAVYYCATDGWYGQHYYDYDFDYYYWGQGTQVTVSS | low polyreactivity
19 | QVQLVESGGGLVQAGGSLRLSCAASGSTFRWNAMGWYRQAPGKERELVAAISSGGRTYYADSVKGRFTISRDNAKNTVYLQMNSLKPEDTAVYYCSARTSRYYYYPYAFYWGQGTQVSVSS | high polyreactivity
20 | QVQLVESGGGLVQAGGSLRLSCAASGSTFRWYAMGWSRQAPGKERELVAAIRRIGSRTYADSVKGRFTISRDNAKNTVYLQMNSLKPEDTAVYYCATRYKYTGYDYWGQGTQVTVSS | high polyreactivity
21 | QVQLVESGGGLVQAGGSLRLSCAASGSTFRWYAMGWYRQAPGKERELVASITRGGGSTYYADSVKGRFTISRDNAKNTVYLQMNSLKPEDTAVYYCAKRSLWSYYEGYYYWGQGTQVTVSS | high polyreactivity
22 | QVQLVESGGGLVQAGGSLRLSCAASGSTFRYNAMGWYRQAPGKERELVAAISKGGGRTYYADSVKGRFTISRDNAKNTVYLQMNSLKPEDTAVYYCAATYGTGRRSKYGYWGQGTQVTVSS | high polyreactivity

Row | Sequence | polyreactivity (PSR sort gate)
23 | QVQLVESGGGLVQAGGSLRLSCAASGSTFRYNAMGWYRQAPGKERELVAAISSGSSTNYADSVKGRFSISRDNAKNTVYLQMNSLKPEDTAVYYCAAQPGYYDDFYYWGQGTQVTVSS | low polyreactivity
24 | QVQLVESGGGLVQAGGSLRLSCAASGSTFRYNAMGWYRQAPGKERELVAAISSSGGSTRYADSVKGRFTISRDNANNTVYLQMNSLKPEDTAVYYCAVRFYDWRYYYWGQGTQVTVSS | high polyreactivity
25 | QVQLVESGGGLVQAGGSLRLSCAASGSTFRYNAMGWYRQAPGKERELVATITSGGYTNYADSVKGRFTISRDNAKNSVYLQMNSLKPVDSAVYYCATDSLFRTYVEWDRKFDYWGQGTQVTVSS | high polyreactivity
26 | QVQLVESGGGLVQAGGSLRLSCAASGSTFRYNAMGWYRQAPGKEREMVATITWSGGSTYYADSVKGRFTISRDNAKNTVYLQMNSLKPEDTAVYYCAKLPFPVYYGGSYKYYYWGLGTQVTVSS | high polyreactivity
27 | QVQLVESGGGLVQAGGSLRLSCAASGSTFRYNAMGWYRQAPGTERELVAAINWSGSSTYYADSVKGRFTISRDNAKKTVYLQMNSLKPEDTAVYYCAAERPWYTKWGEYWGQGTQVTVSS | high polyreactivity
28 | QVQLVESGGGLVQAGGSLRLSCAASGSTFRYYAMGWYRQAPGKERDLVAAINRSGGSTYYADSVKGRFTISRDIAKNTVYLQMNSLKPEDTAVYYCGAPWGRHYTNPDDYWGQGTQVTVSS | high polyreactivity
29 | QVQLVESGGGLVQAGGSLRLSCAASGSTFRYYAMGWYRQAPGKERELVAAINYSGGRTYYADSVKGRFTISRDNAKNTVYLQMNCVKPEDSAVYYCAADWSYLAVTDSTSDYDPNYGYWGQGTQVNVSS | high polyreactivity
30 | QVQLVESGGGLVQAGGSLRLSCAASGSTFRYYAMGWYRQAPGKERELVAAISSAGTTYYADSVKGRFTISRDNAKNTVYLQMNSLKPEDTAVYYCTARFVYHSSFAGFDYWGQGTQVTVSS | low polyreactivity
31 | QVQLVESGGGLVQAGGSLRLSCAASGSTFRYYAMGWYRQAPGKERELVAAISYRGVRTNYADSVKGRFTISRDHAKNTVYLQMNSLKPEDTAVYYCADRFGRSSSGSPYDRYGYWGQGTQVTVSS | high polyreactivity
32 | QVQLVESGGGLVQAGGSLRLSCAASGSTFRYYAMGWYRQAPGKERELVAAITRSGSTYYADSVKGRFTISRDNAKNTVYLQMNSLKREDTAVYYCNADQYYGGRYVYLRHYNYWGQGTQVTVSS | high polyreactivity
33 | QVQLVESGGGLVQAGGSLRLSCAASGSTFRYYAMGWYRQAPGKERELVAGITSAGNTYYADSVKGRFTISRDNAKNTVYLQMNSLKPEDTAVYYCAARRWKGYYYWGQGTQVTVSS | high polyreactivity
34 | QVQLVESGGGLVQAGGSLRLSCAASGSTFRYYAMGWYRQAPGKERELVAVISTSGNTYYADSVKGRFSISRDNAKITVYVQMNSLQPEETAVYYCAARGVGGQISQEYDYWGQGTQVTVSS | low polyreactivity
35 | QVQLVESGGGLVQAGGSLRLSCAASGSTFRYYDMGWYRQAPGKERELVAVISKSGARTYYADSVKGRFTISRDNAKNTVYLQMNSLKPEDTAVYYCIAVFKLDSQYAMGYWGQGTQLTVSS | high polyreactivity
36 | QVQLVESGGGLVQAGGSLRLSCAASGSTFRYYSMGWYRQAPGKERELVASISSGGSTNYADSVKGRFTISRDNAKNTVYLQMNSLKPGDTAVYYCNADSWTVNRRYYYYRYEYWGQGTQVTVSS | low polyreactivity
37 | QVQLVESGGGLVQAGGSLRLSCAASGSTFRYYVMGWYRQAPGKERELVAAISSSGGSTYYADSVKGRFTISRDNAKNTVYLQMNSLKPEDTAVYYCARDKGYVSYRYNYWGQGTQVTVSS | high polyreactivity
38 | QVQLVESGGGLVQAGGSLRLSCAASGSTFRYYVMGWYRQEPGKEREFVAAISAGGGRTYYADSVKGRFTISRDNSKNTVYLQMNSLKPEDTAVYYCAATKGNILRRSRYDYWGQGTQVTVSS | high polyreactivity
39 | QVQLVESGGGLVQAGGSLRLSCAASGSTFSAYTMGWYRQAPGKERELVARITNGGSTYYADSVKGRFTISRDNAKNTVYLQMNSLKPEDTAVYYCAAQLGWWGSGYWGQGTQVTVSS | high polyreactivity
40 | QVQLVESGGGLVQAGGSLRLSCAASGSTFSAYTMGWYRQAPGKERELVARITNGGSTYYADSVKGRFTISRDNAKNTVYLQMNSLKPEDTAVYYCNVQYYVSYWRSYDYWGQGTQVTVSS | high polyreactivity
41 | QVQLVESGGGLVQAGGSLRLSCAASGSTFSCYAMGWYRQAPGKERELVAAISSSGGTSTYADSVKARFTISRDNAKKTVYLQMNSLKPEDTAVYYCAARQYRRLRDYRHDYWGQGTQVTVSS | high polyreactivity
42 | QVQLVESGGGLVQAGGSLRLSCAASGSTFSDNAMGWYRQAPGKDRELVAAINYSDGSTNYADSVKGRFTISRDNAKNTVYLQMNSLKPEDTAVYYCAVDIYFWCYGWWGPYDYWGQGTQVTVSS | low polyreactivity
43 | QVQLVESGGGLVQAGGSLRLSCAASGSTFSDNAMGWYRQAPGKERELVAAISVTGGRTYYADSVKGRFTISRDNAKNTVYLQMNSLKPEDTAVYYCAKVTILDPYSYDYWGQGTQVTVSS | low polyreactivity

Reference: the nanobody polyreactivity screen of Harvey et al. (2022)
